Results on 76 sequences are retold here after the supplement of paper PMC7877785.

± gives the uncertainty stated by the source.

The data set is described as follows: self-splicing fitness, log relative to wild type (ln ratio); higher = more splicing; Tetrahymena group I intron in knt gene, E. coli kanamycin selection, DiMSum; sequences stand for … in CUCUCU…GGAGGGAAAAGUUAUCAGGCAUGCACCUGGUAGCUAGUCUUUAAACCAAUAGAUUGCAUCGGUUUAAAAGGCAAGACCGUCAAAUUGCGGGAAAGGGGUCAACAGCCGUUCAGUACCAAGUCUCAGGGGAAACUUUGAGAUGGCCUUGCAAAGGGUAUGGUAAUAAGCUGACGGACAUGGUCCUAACCACGCAGCCAAGUCCUAAGUCAACAGAUCUUCUGUUGAUAUGGAUGCAGUUCACAGACUAAAUGUCGGUCGGGGAAGAUGUAUUCUUCUCAUAAGAUAUAGUCGGACCUCUCCUUAAUGGGAGCUAGCGGAUGAAGUGAUGCAACACUGGAGCCGCUGGGAACUAAUUUGUAUGCGAAAGUAUAUUGAUUAGUUUUGGAGUACUCGUGGUCG
Summed up: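 Colonies from six replicate transformations of E. coli BL21(DE3) were pooled and amplicon-sequenced on an Illumina HiSeq 2500. The library placed an intron with all eight P1ex-region nucleotides randomised inside the knt kanamycin-resistance gene on pET-22b(+), and cells grew overnight at 37°C or 30°C on LB agar with or without 25 μg/mL kanamycin (plus 100 μg/mL carbenicillin, 50 μM IPTG, 0.2% rhamnose). Fitness is the DiMSum error-weighted combination of wild-type-normalised replicate fold changes, kanamycin versus none.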

ACGAAGCAAUAUUACGCGUC: the “self-splicing fitness (ln)” value (30 °C) is -3.76 ± 0.21 and the “self-splicing fitness (ln)” value (37 °C) was -1.91 ± 0.19.

Consider UUCCAGCAAUAUUACGUCGC, for which the “self-splicing fitness (ln)” value was -1.69 ± 0.32 (30 °C) and -1.23 ± 0.45 (37 °C).

With GCGAAGCAAUAUUACGGGCC, where the note is “37 °C”, the “self-splicing fitness (ln)” value was -1.37 ± 0.46. In the case of CCCUAGCAAUAUUACGUCUC, the “self-splicing fitness (ln)” value (30 °C) was -3.71 ± 0.41 and the “self-splicing fitness (ln)” value (37 °C) was -2.67 ± 0.27. Regarding CUGAAGCAAUAUUACGUCCU, the “self-splicing fitness (ln)” value by setting is: (30 °C) -3.45 ± 0.23; (37 °C) -2.39 ± 0.23. For the sequence AUCCAGCAAUAUUACGUAAG, the “self-splicing fitness (ln)” value (30 °C) was -1.59 ± 0.065 and the “self-splicing fitness (ln)” value (37 °C) was -0.715 ± 0.087. As for CCAGAGCAAUAUUACGCCAC, the “self-splicing fitness (ln)” value by setting is: (30 °C) -3.59 ± 0.26; (37 °C) -2.28 ± 0.24. For the sequence AUGUAGCAAUAUUACGAAUG, the “self-splicing fitness (ln)” value runs as follows: (30 °C) -2.89 ± 0.28; (37 °C) -2.37 ± 0.29. On to GAUCAGCAAUAUUACGUUUC, for which the “self-splicing fitness (ln)” value was -2.26 ± 0.12 (30 °C) and -0.791 ± 0.1 (37 °C).

Regarding AGAGAGCAAUAUUACGCCGC, the “self-splicing fitness (ln)” value was -3.9 ± 0.3 (30 °C) and -1.49 ± 0.25 (37 °C).

With AUUUAGCAAUAUUACGACAU, the “self-splicing fitness (ln)” value stood at 0.163 ± 0.014 (30 °C) and 0.28 ± 0.033 (37 °C). On the same counts, the results for CACCAGCAAUAUUACGCCAA are -2.95 ± 0.28 and -3.23 ± 0.3. On the same counts, the results for UUGGAGCAAUAUUACGUCGG are -2.64 ± 0.26 and -0.784 ± 0.19. On the same counts, the results for CGUUAGCAAUAUUACGGAUC are -2.18 ± 0.12 and -1.13 ± 0.19. AGAUAGCAAUAUUACGUAGU: the “self-splicing fitness (ln)” value (30 °C) was -2.61 ± 0.11 and the “self-splicing fitness (ln)” value (37 °C) is -2.46 ± 0.15.

In the case of ACACAGCAAUAUUACGGUGU, the “self-splicing fitness (ln)” value reads like this: (30 °C) -5.22 ± 0.26; (37 °C) -2.92 ± 0.21. For the sequence AGGCAGCAAUAUUACGAGCG, the “self-splicing fitness (ln)” value is -1.13 ± 0.074 (30 °C) and 0.237 ± 0.088 (37 °C). Consider AUGUAGCAAUAUUACGCUGG, for which the “self-splicing fitness (ln)” value is, setting by setting: (30 °C) -3.03 ± 0.14; (37 °C) -1.92 ± 0.16. On the same counts, the results for GUUGAGCAAUAUUACGAUCU are -0.691 ± 0.093 and -1.12 ± 0.11. AAGAAGCAAUAUUACGGUGC: the “self-splicing fitness (ln)” value is -3.77 ± 0.2 (30 °C) and -1.68 ± 0.17 (37 °C). Taken in the same sequence, the figures for AUCUAGCAAUAUUACGUAGU were -1.83 ± 0.096 and -0.758 ± 0.11. In the case of UGAUAGCAAUAUUACGGGCC, the “self-splicing fitness (ln)” value (30 °C) is -3.78 ± 0.42. As for CUUGAGCAAUAUUACGUGUA, the “self-splicing fitness (ln)” value was -2.71 ± 0.14 (30 °C) and -2.84 ± 0.2 (37 °C). Taken in the same sequence, the figures for CAACAGCAAUAUUACGGCUG were -1.27 ± 0.077 and -1.24 ± 0.11.

For the sequence GACGAGCAAUAUUACGUGUG, the “self-splicing fitness (ln)” value reads like this: (30 °C) -2.9 ± 0.087; (37 °C) -1.01 ± 0.077.

With CAAGAGCAAUAUUACGCUUG, the “self-splicing fitness (ln)” value (37 °C) was -2.99 ± 0.47.

With AUACAGCAAUAUUACGUGGG, the “self-splicing fitness (ln)” value (30 °C) is -3.45 ± 0.15 and the “self-splicing fitness (ln)” value (37 °C) is -1.53 ± 0.12. As for GCUGAGCAAUAUUACGGUGC, the “self-splicing fitness (ln)” value runs as follows: (30 °C) -3.9 ± 0.3; (37 °C) -1.61 ± 0.22. In the case of CCCAAGCAAUAUUACGCGAC, the “self-splicing fitness (ln)” value (30 °C) was -3.2 ± 0.21 and the “self-splicing fitness (ln)” value (37 °C) is -2.29 ± 0.19. As for CUAGAGCAAUAUUACGUUGC, the “self-splicing fitness (ln)” value by setting is: (30 °C) -3.14 ± 0.32; (37 °C) -2.18 ± 0.44. Taken in the same sequence, the figures for GCAGAGCAAUAUUACGAUUU were -2.51 ± 0.14 and -2.16 ± 0.19. On the same counts, the results for AGUAAGCAAUAUUACGCAGG are -3.42 ± 0.23 and -1.43 ± 0.2. Taken in the same sequence, the figures for CCUUAGCAAUAUUACGCUAC were -2.32 ± 0.27 and -2.26 ± 0.27. Regarding UGUCAGCAAUAUUACGCAGU, the “self-splicing fitness (ln)” value is -1.27 ± 0.18 (30 °C) and -0.898 ± 0.27 (37 °C). For CACCAGCAAUAUUACGUGAG, the “self-splicing fitness (ln)” value reads like this: (30 °C) -3.8 ± 0.16; (37 °C) -2.26 ± 0.14.

GACGAGCAAUAUUACGCACA: the “self-splicing fitness (ln)” value is, setting by setting: (30 °C) -2.32 ± 0.15; (37 °C) -0.917 ± 0.14. As for AGUGAGCAAUAUUACGAGAA, the “self-splicing fitness (ln)” value (30 °C) is -1.8 ± 0.48. Take CCUCAGCAAUAUUACGAUAU: the “self-splicing fitness (ln)” value was -4.25 ± 0.25 (30 °C) and -0.929 ± 0.15 (37 °C). On the same counts, the results for GCGUAGCAAUAUUACGAUCA are -0.167 ± 0.14 and 0.0769 ± 0.14. On to UGCAAGCAAUAUUACGAACG, for which the “self-splicing fitness (ln)” value is, setting by setting: (30 °C) -0.0871 ± 0.083; (37 °C) 0.961 ± 0.11. Taken in the same sequence, the figures for GAUAAGCAAUAUUACGUCUG were -2.51 ± 0.24 and -1.57 ± 0.25. Regarding CGUAAGCAAUAUUACGUCAG, the “self-splicing fitness (ln)” value (30 °C) is -1.56 ± 0.11 and the “self-splicing fitness (ln)” value (37 °C) came out at 0.0936 ± 0.11. On to GUUAAGCAAUAUUACGUUGG, for which the “self-splicing fitness (ln)” value is, setting by setting: (30 °C) -2.45 ± 0.14; (37 °C) -1.19 ± 0.15. On to GUCUAGCAAUAUUACGACCU, for which the “self-splicing fitness (ln)” value was -2.33 ± 0.21 (30 °C) and -1.21 ± 0.17 (37 °C). As to CCGCAGCAAUAUUACGUUUG, the “self-splicing fitness (ln)” value reads like this: (30 °C) -1.62 ± 0.065; (37 °C) -1.36 ± 0.096. On the same counts, the results for GUAGAGCAAUAUUACGUUAA are -2 ± 0.17 and -0.228 ± 0.21. On the same counts, the results for UGUAAGCAAUAUUACGUGGC are -4.03 ± 0.4 and -2.26 ± 0.37. For UGCUAGCAAUAUUACGUUCU, the “self-splicing fitness (ln)” value by setting is: (30 °C) -0.686 ± 0.092; (37 °C) -0.861 ± 0.12.

With CGAAAGCAAUAUUACGCUCU, the “self-splicing fitness (ln)” value was -2.56 ± 0.14 (30 °C) and -1.56 ± 0.15 (37 °C). With CUCAAGCAAUAUUACGGUAA, the “self-splicing fitness (ln)” value (30 °C) was -1.8 ± 0.27 and the “self-splicing fitness (ln)” value (37 °C) is -1.66 ± 0.18. On the same counts, the results for GGGCAGCAAUAUUACGCGAG are -0.948 ± 0.094 and -0.664 ± 0.098. As for ACAUAGCAAUAUUACGAUGG, the “self-splicing fitness (ln)” value is, setting by setting: (30 °C) -1.64 ± 0.088; (37 °C) -0.176 ± 0.11. Regarding GGUCAGCAAUAUUACGAUCC, the “self-splicing fitness (ln)” value (37 °C) was -0.912 ± 0.18. For CCAUAGCAAUAUUACGUCGU, the “self-splicing fitness (ln)” value is -2.4 ± 0.15 (30 °C) and -2.82 ± 0.23 (37 °C).

As for GCAAAGCAAUAUUACGGGAC, the “self-splicing fitness (ln)” value runs as follows: (30 °C) -1.82 ± 0.11; (37 °C) -1.66 ± 0.16. Taken in the same sequence, the figures for CUUUAGCAAUAUUACGGGAU were -3.8 ± 0.22 and -2.67 ± 0.19. As for CGGGAGCAAUAUUACGUCGG, the “self-splicing fitness (ln)” value was -2.52 ± 0.14 (30 °C) and -1.66 ± 0.15 (37 °C). For UUUUAGCAAUAUUACGGUAU, the “self-splicing fitness (ln)” value is -2.87 ± 0.32 (30 °C) and -3.11 ± 0.47 (37 °C). In the case of AUCCAGCAAUAUUACGGGUA, the “self-splicing fitness (ln)” value by setting is: (30 °C) -1.58 ± 0.1; (37 °C) -1.21 ± 0.089. On the same counts, the results for CCACAGCAAUAUUACGUUCG are -1.21 ± 0.048 and -0.208 ± 0.069. As to CACGAGCAAUAUUACGUAGC, the “self-splicing fitness (ln)” value is, setting by setting: (30 °C) -2.94 ± 0.24; (37 °C) -3.31 ± 0.3. Take UUACAGCAAUAUUACGUCGC: the “self-splicing fitness (ln)” value reads like this: (30 °C) -2.92 ± 0.17; (37 °C) -2.55 ± 0.18.

GCGAAGCAAUAUUACGAAGC: the “self-splicing fitness (ln)” value by setting is: (30 °C) -2.71 ± 0.39; (37 °C) -2.49 ± 0.36. As for GUCUAGCAAUAUUACGUUAU, the “self-splicing fitness (ln)” value (30 °C) was -0.954 ± 0.061 and the “self-splicing fitness (ln)” value (37 °C) is -0.704 ± 0.055. Taken in the same sequence, the figures for GACCAGCAAUAUUACGACGG were -2.67 ± 0.15 and -1.99 ± 0.18. On the same counts, the results for UUGCAGCAAUAUUACGACUA are 0.37 ± 0.1 and 0.519 ± 0.12. Taken in the same sequence, the figures for AAGUAGCAAUAUUACGACAA were -0.505 ± 0.073 and 0.0804 ± 0.084. With CUCUAGCAAUAUUACGACCG, the “self-splicing fitness (ln)” value (30 °C) is -0.158 ± 0.23 and the “self-splicing fitness (ln)” value (37 °C) is -0.785 ± 0.24. Consider ACAGAGCAAUAUUACGCAGG, for which the “self-splicing fitness (ln)” value was -4.02 ± 0.18 (30 °C) and -2.59 ± 0.17 (37 °C). As to UCUGAGCAAUAUUACGGGUC, the “self-splicing fitness (ln)” value is -4.32 ± 0.39 (30 °C) and -2.38 ± 0.3 (37 °C).

Consider CUGGAGCAAUAUUACGACAU, for which the “self-splicing fitness (ln)” value is, setting by setting: (30 °C) -2.19 ± 0.019; (37 °C) -1.3 ± 0.036. For GCUCAGCAAUAUUACGCCCC, the “self-splicing fitness (ln)” value reads like this: (30 °C) 0.441 ± 0.32; (37 °C) -0.222 ± 0.41.

Regarding AGUCAGCAAUAUUACGCCCG, the “self-splicing fitness (ln)” value is -0.925 ± 0.12 (30 °C) and -1.52 ± 0.17 (37 °C). For GGAAAGCAAUAUUACGACAG, the “self-splicing fitness (ln)” value is -2.98 ± 0.14 (30 °C) and -2.17 ± 0.22 (37 °C).

As to UACGAGCAAUAUUACGCGCA, the “self-splicing fitness (ln)” value runs as follows: (30 °C) -1.42 ± 0.19; (37 °C) -1.03 ± 0.17. On to UAAAAGCAAUAUUACGGAUU, for which the “self-splicing fitness (ln)” value was -2.12 ± 0.14 (30 °C) and -1.56 ± 0.19 (37 °C).
